Source: US7846719B2, “Express system of soluble glutaminyl cyclase” (Academia Sinica, priority 2006, dated 2010)

Substrate: NC(=O)CC[C@H](NC(=O)[C@@H](N)CCC(N)=O)C(=O)O
Experiment: Spectrophotometric QC activity assay (glutamate dehydrogenase coupled), human QC expressed in E. coli
Type: biochemical
Conditions: other: substrate of human QC expressed in Escherichia coli cell, mean ± SD (n = 2), 50 mM Tris-HCl, pH 8.0
Description: For the spectrophotometric method, the 500 μl assay solutions consisted of 15 units glutamate dehydrogenase, 12 mM α-ketoglutarate, 0.6 mM NADH (a reduced form of NAD (nicotinamide adenine dinucleotide)) and varying concentrations of synthetic substrate in 50 mM Tris-HCl, pH 8.0. Reactions were started by the addition of QC (0.04 to 2.5 μg), and the activity was monitored by recording the decrease of NADH absorbance at 340 nm.
The Km and kcat values determined for the recombinant protein of the invention were very similar to the human QC expressed in Drosophila S2 cells, as evident in Table 1.

B1: recombinant human QC (Homo sapiens) (protein)
chain: ASAWPEEKNYHQPAILNSSALRQIAEGTSISEMWQNDLQPLLIERYPGSPGSYAARQHIMQRIQRLQADWVLEIDTFLSQTPYGYRSFSNIISTLNPTAKRHLVLACHYDSKYFSHWNNRVFVGATDSAVPCAMMLELARALDKKLLSLKTVSDSKPDLSLQLIFFDGEEAFLHWSPQDSLYGSRHLAAKMASTPHPPGARGTSQLHGMDLLVLLDLIGAPNPTFPNFFPNSARWFERLQAIEHELHELGLLKDHSLEGRYFQNYSYGGVIQDDHIPFLRRGVPVLHLIPSPFPEVWHTMDDNEENLDESTIDNLNKILQVFVLEYLHL
notes: corresponding to the coding region of human QC (Ala33-Leu361) was re-amplified and inserted into a pET-43.1a expression vector; Nus fusion (pET-43.1a construct) or thioredoxin fusion (pET-32a construct) (N, cleaved yes); (His)6 (pET-43.1a construct: N- and C-terminal sites; pET-32a construct: 5'-end, upstream of the Factor Xa site); made in house; host or cells: E. coli BL21 (DE3)
Km: 600 ± 100 µM
kcat: 8.6 ± 0.5 s⁻¹
kcat/Km: 13700 ± 500 M⁻¹ s⁻¹
